Results reported in patent publication US20150005238A1 (PAION DEUTSCHLAND, published 2015).

molecular target: thrombin (APC / TAFI activation assays of Examples V, VI and VIII; source not stated for the assay); test: cell-based or functional assay

Binder | cofactor activity (APC assay)
TME with Ala inserted between 386 and 387 (receptor) CSVENGGCEHACNAIPGAPRCQCPAGAALQADGRSCTASATQSCNDLCEHFCVPNPDQPGSYSCMCETGYRLAADQHRCEDVDDCILEPSPCPQRCVNTQGGFECHCYPNYDLVDGECVEPVDPCFRANCEYQCQPLNQTSYLCVCAEGFAPIPHEPHRCAQMFCNQTACPADCDPNTQASCECPEGYILDDGFICTDIDECENGGFCSGVCHNLPGTFECICGPDSALARHIGTDC | < 10 % of wild type TME
TME with Ala inserted between 387 and 388 (receptor) CSVENGGCEHACNAIPGAPRCQCPAGAALQADGRSCTASATQSCNDLCEHFCVPNPDQPGSYSCMCETGYRLAADQHRCEDVDDCILEPSPCPQRCVNTQGGFECHCYPNYDLVDGECVEPVDPCFRANCEYQCQPLNQTSYLCVCAEGFAPIPHEPHRCQAMFCNQTACPADCDPNTQASCECPEGYILDDGFICTDIDECENGGFCSGVCHNLPGTFECICGPDSALARHIGTDC | < 10 % of wild type TME
TME with Ala inserted between 389 and 390 (receptor) CSVENGGCEHACNAIPGAPRCQCPAGAALQADGRSCTASATQSCNDLCEHFCVPNPDQPGSYSCMCETGYRLAADQHRCEDVDDCILEPSPCPQRCVNTQGGFECHCYPNYDLVDGECVEPVDPCFRANCEYQCQPLNQTSYLCVCAEGFAPIPHEPHRCQMFACNQTACPADCDPNTQASCECPEGYILDDGFICTDIDECENGGFCSGVCHNLPGTFECICGPDSALARHIGTDC | < 10 % of wild type TME
TME with Ala inserted between 388 and 389 (receptor) CSVENGGCEHACNAIPGAPRCQCPAGAALQADGRSCTASATQSCNDLCEHFCVPNPDQPGSYSCMCETGYRLAADQHRCEDVDDCILEPSPCPQRCVNTQGGFECHCYPNYDLVDGECVEPVDPCFRANCEYQCQPLNQTSYLCVCAEGFAPIPHEPHRCQMAFCNQTACPADCDPNTQASCECPEGYILDDGFICTDIDECENGGFCSGVCHNLPGTFECICGPDSALARHIGTDC | < 10 % of wild type TME

The next lines start with the values.

cofactor activity (APC assay) | Binder
< 10 % of wild type TME | TME with deletion of Gln387 (receptor) CSVENGGCEHACNAIPGAPRCQCPAGAALQADGRSCTASATQSCNDLCEHFCVPNPDQPGSYSCMCETGYRLAADQHRCEDVDDCILEPSPCPQRCVNTQGGFECHCYPNYDLVDGECVEPVDPCFRANCEYQCQPLNQTSYLCVCAEGFAPIPHEPHRCMFCNQTACPADCDPNTQASCECPEGYILDDGFICTDIDECENGGFCSGVCHNLPGTFECICGPDSALARHIGTDC
< 10 % of wild type TME | TME with deletion of Met388 (receptor) CSVENGGCEHACNAIPGAPRCQCPAGAALQADGRSCTASATQSCNDLCEHFCVPNPDQPGSYSCMCETGYRLAADQHRCEDVDDCILEPSPCPQRCVNTQGGFECHCYPNYDLVDGECVEPVDPCFRANCEYQCQPLNQTSYLCVCAEGFAPIPHEPHRCQFCNQTACPADCDPNTQASCECPEGYILDDGFICTDIDECENGGFCSGVCHNLPGTFECICGPDSALARHIGTDC
< 10 % of wild type TME | TME with deletion of Phe389 (receptor) CSVENGGCEHACNAIPGAPRCQCPAGAALQADGRSCTASATQSCNDLCEHFCVPNPDQPGSYSCMCETGYRLAADQHRCEDVDDCILEPSPCPQRCVNTQGGFECHCYPNYDLVDGECVEPVDPCFRANCEYQCQPLNQTSYLCVCAEGFAPIPHEPHRCQMCNQTACPADCDPNTQASCECPEGYILDDGFICTDIDECENGGFCSGVCHNLPGTFECICGPDSALARHIGTDC

molecular target: human thrombin (human, UniProt P00734 328-622); test: equilibrium binding titration in solution; perturbation of DAPA fluorescence (20 nM thrombin, 20 nM DAPA, Solulin titrated), nonlinear regression
Method: The binding of thrombin to thrombomodulin was measured as an equilibrium binding assay. A solution containing thrombin (20 nM), thrombomodulin (1.54 μM), and DAPA (20 nM, dansylarginine N-3-(ethyl-1,5-pentanediyl)amide, a fluorescent, reversible thrombin inhibitor) in 0.02 M Tris-HCl, 0.15 M NaCl, 5.0 mM CaCl₂, 0.01% Tween 80, pH 7.4, was added in small successive aliquots to an otherwise identical solution that lacked thrombomodulin. The additions were performed in a cuvette fitted with a magnetic stirrer in the sample compartment of a Perkin-Elmer model LS50B spectrofluorimeter. Intensity values were continuously recorded with excitation and emission wavelengths of 280 and 545 nm, respectively. A 430-nm cut-off filter was used in the emission beam. The intensity of fluorescence, I, was assumed to be the sum of intensities from thrombin-DAPA (T·D) and thrombin-thrombomodulin-DAPA (T·TM·D). That is, I=i₁·[T·D]+i₂·[T·TM·D], where i₁ and i₂ are the coefficients of fluorescence for T·D and T·TM·D (since excitation was at 280 nm, the emission from free DAPA was negligible).

Kd [nM] | Binder
23 | Recombinant soluble thrombomodulin (Solulin) (receptor, Obtained from PAION; also called sTM; recombinant human soluble thrombomodulin) EPQPGGSQCVEHDCFALYPGPATFLNASQICDGLRGHLMTVRSSVAADVISLLLNGDGGVGRRRLWIGLQLPPGCGDPKRLGPLRGFQWVTGDNNTSYSRWARLDLNGAPLCGPLCVAVSAAEATVPSEPIWEEQQCEVKADGFLCEFHFPATCRPLAVEPGAAAAAVSITYGTPFAARGADFQALPVGSSAAVAPLGLQLMCTAPPGAVQGHWAREAPGAWDCSVENGGCEHACNAIPGAPRCQCPAGAALQADGRSCTASATQSCNDLCEHFCVPNPDQPGSYSCMCETGYRLAADQHRCEDVDDCILEPSPCPQRCVNTQGGFECHCYPNYDLVDGECVEPVDPCFRANCEYQCQPLNQTSYLCVCAEGFAPIPHEPHRCQLFCNQTACPADCDPNTQASCECPEGYILDDGFICTDIDECENGGFCSGVCHNLPGTFECICGPDSALAGQIGTDCDSGKVDGGDSGAGEPPPSPTPGSTLTPP
